This assay addresses T1, rat antibody hybridoma clone M7/1 (EMAP II neutralizing M7/1 antibody).
T1 construct: Rat monoclonal IgG from a hybridoma; also called rat monoclonal neutralizing antibody M7
Put plainly: description in the sequence table.

T1 sequence (VH, as listed by the source, chain 1 of 2): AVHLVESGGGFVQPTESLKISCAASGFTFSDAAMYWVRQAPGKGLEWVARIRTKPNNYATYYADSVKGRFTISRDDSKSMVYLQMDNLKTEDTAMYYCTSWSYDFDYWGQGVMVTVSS
T1 sequence (VL, as listed by the source, chain 2 of 2): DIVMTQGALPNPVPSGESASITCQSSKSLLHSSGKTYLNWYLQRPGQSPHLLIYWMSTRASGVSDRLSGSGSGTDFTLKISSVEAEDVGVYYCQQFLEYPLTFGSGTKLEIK

B1: Peptide 2 (QQSIAGSADSKPIDVSR) (peptide)
peptide: QQSIAGSADSKPIDVSR
notes: Synthetic peptide from human EMAP II; also called ID NO; 12
Turning to B1, the binding result is recorded as “binds”.

The values are drawn from patent publication US20200040069A1 (INDIANA UNIVERSITY RESEARCH AND TECHNOLOGY, published 2020).
